US20260263647A1 (Dana-Farber, published 2026)

Experiments:
[1] = molecular target: T1, human CD45 on human peripheral blood mononuclear cells (PBMCs) (human, UniProt P08575 26-1306); experiment: flow cytometry on human PBMCs
T1 construct: whole, on cells; The target is inferred from the cells used (CD45+ human PBMCs); also called hCD45
T1 sequence (looked up): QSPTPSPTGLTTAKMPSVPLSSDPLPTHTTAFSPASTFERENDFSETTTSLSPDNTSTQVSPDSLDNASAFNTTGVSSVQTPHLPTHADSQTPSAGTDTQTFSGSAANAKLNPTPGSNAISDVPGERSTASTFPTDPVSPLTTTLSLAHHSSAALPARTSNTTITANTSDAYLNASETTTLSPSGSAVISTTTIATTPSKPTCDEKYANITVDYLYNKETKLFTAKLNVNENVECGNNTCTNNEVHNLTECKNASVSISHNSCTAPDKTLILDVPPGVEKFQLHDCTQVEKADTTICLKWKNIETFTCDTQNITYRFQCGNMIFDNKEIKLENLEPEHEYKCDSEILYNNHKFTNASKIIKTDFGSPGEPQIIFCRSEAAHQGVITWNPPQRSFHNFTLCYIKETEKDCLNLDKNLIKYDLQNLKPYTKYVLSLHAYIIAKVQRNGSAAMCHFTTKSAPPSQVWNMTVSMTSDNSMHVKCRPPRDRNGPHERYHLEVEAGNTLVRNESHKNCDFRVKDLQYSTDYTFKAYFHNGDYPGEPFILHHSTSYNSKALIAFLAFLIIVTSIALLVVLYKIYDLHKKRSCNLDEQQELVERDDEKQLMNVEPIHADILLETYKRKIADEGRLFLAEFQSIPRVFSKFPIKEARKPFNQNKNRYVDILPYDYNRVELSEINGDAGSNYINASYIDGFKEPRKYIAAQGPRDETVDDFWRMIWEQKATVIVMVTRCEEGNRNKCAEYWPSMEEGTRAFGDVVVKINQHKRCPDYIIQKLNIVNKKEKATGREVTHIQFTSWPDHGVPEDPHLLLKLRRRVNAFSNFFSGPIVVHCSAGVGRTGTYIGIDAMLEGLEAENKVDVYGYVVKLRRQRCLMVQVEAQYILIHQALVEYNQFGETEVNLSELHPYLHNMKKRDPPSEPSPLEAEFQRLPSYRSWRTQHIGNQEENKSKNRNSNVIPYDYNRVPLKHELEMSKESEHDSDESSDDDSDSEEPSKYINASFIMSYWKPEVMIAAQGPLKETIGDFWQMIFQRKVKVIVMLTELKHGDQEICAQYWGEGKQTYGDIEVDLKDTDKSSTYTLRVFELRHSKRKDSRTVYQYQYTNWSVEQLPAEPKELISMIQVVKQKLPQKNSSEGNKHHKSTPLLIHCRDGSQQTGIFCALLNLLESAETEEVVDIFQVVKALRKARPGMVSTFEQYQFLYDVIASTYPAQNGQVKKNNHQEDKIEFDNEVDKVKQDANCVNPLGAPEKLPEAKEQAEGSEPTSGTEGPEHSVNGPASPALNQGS

[2] = molecular target: T1, human CD45 on human peripheral blood …; experiment: flow cytometry, staining of human PBMCs with different concentrations of the minibody

B1: CD45 minibody (anti-human CD45 antibody fragment, clone BC8 scFv fused to the IgG1 CH3 domain) (other)
chain: QVQLVESGGGLVQPGGSLKLSCAASGFDFSRYWMSWVRQAPGKGLEWIGEINPTSSTINFTPSLKDKVFISRDNAKNTLYLQMSKVRSEDTALYYCARGNYYRYGDAMDYWGQGTSVTVSKISGGGGSGGGGSGGGGSGGGGSGGGGSSDIVLTQSPASLAVSLGQRATISCRASKSVSTSGYSYLHWYQQKPGQPPKLLIYLASNLESGVPARFSGSGSGTDFTLNIHPVEEEDAATYYCQHSRELPFTFGSGTKLEIKGGGSEPKSPKSADKTHTAPQPREPQVYTLPPSRDELTKNQVSLTCLVKGFYPSDIAVEWESNGQPENNYKTTPPVLDSDGSFFLYSKLTVDKSRWQQGNVFSCSVMHEALHNHYTQKSLSLSPGKDYKDDDKHHHHHH
notes: also called anti-CD45-minibody probe; human CD45-PET probe
**Q.** B1 was tested. Which EC50 [1] did it give?
**A.** Its EC50 is roughly 5 nM.

**Q.** What about the EC50 [2] of the same binder?
**A.** Its EC50 is roughly 10 nM.
